{
  "source": "paper PMC10926643",
  "about": "(2024)",
  "binders": {"B1": {"name": "recombinant galectin-8 (natural protein)", "chain": "MMLSLNNLQNIIYNPVIPFVGTIPDQLDPGTLIVIRGHVPSDADRFQVDLQNGSSMKPRADVAFHFNPRFKRAGCIVCNTLINEKWGREEITYDTPFKREKSFEIVIMVLKDKFQVAVNGKHTLLYGHRIGPEKIDTLGIYGKVNIHSIGFSFSSDLQSTQASSLELTEISRENVPKSGTPQLRLPFAARLNTPMGPGRTVVVKGEVNANAKSFNVDLLAGKSKDIALHLNPRLNIKAFVRNSFLQESWGEEERNITSFPFSPGMYFEMIIYCDVREFKVAVNGVHSLEYKHRFKELSSIDTLEINGDIHLLEVRSW"}},
  "biological_target": "T1, recombinant FGF12 fused with the His-tag (UniProt P61328 1-243)",
  "T1 chain": "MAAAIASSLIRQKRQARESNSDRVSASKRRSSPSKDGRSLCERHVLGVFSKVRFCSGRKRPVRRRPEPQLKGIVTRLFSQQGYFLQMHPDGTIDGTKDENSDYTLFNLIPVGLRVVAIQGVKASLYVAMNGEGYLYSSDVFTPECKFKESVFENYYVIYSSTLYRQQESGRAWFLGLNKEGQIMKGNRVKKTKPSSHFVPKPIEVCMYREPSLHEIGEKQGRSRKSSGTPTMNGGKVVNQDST",
  "experiment": "SPR",
  "data": [
    {"binder": "B1", "values": [
      {"measurement": "Kd", "result": 581, "unit": "nM"}
    ]}
  ]
}
